Measured values as given in article PMC4175178.

Biological target: 60S ribosomal subunit-nascent chain complex made from F-VHP-β RNCs (not stated | rabbit (endogenous in reticulocyte lysate, RRL)) (UniProt G1TSG1)

“FLAG-tagged human Listerin (from UniProt O94822 1-1766) (enzyme)” showed a ubiquitination of 60S versus 80S nascent chain complexes, separated on a sucrose gradient and given purified Listerin, E1, E2, ubiquitin and ATP (Figure S4E) of 10 fold.
